# B1: Vesicle-associated membrane protein-associated protein A (Rattus norvegicus (Rat)), Q9Z270 (parent)
# chain: MASASGAMAKHEQILVLDPPSDLKFKGPFTDVVTTNLKLQNPSDRKVCFKVKTTAPRRYCVRPNSGVIDPGSIVTVSVMLQPFDYDPNEKSKHKFMVQTIFAPPNISDMEAVWKEAKPDELMDSKLRCVFEMPNENDKLNDMEPSKAVPLNASKQDGPLPKPHSVSLNDTETRKLMEECKRLQGEMMKLSEENRHLRDEGLRLRKVAHSDKPGSTSAVSFRDNVTSPLPSLLVVIAAIFIGFFLGKFIL
# partner: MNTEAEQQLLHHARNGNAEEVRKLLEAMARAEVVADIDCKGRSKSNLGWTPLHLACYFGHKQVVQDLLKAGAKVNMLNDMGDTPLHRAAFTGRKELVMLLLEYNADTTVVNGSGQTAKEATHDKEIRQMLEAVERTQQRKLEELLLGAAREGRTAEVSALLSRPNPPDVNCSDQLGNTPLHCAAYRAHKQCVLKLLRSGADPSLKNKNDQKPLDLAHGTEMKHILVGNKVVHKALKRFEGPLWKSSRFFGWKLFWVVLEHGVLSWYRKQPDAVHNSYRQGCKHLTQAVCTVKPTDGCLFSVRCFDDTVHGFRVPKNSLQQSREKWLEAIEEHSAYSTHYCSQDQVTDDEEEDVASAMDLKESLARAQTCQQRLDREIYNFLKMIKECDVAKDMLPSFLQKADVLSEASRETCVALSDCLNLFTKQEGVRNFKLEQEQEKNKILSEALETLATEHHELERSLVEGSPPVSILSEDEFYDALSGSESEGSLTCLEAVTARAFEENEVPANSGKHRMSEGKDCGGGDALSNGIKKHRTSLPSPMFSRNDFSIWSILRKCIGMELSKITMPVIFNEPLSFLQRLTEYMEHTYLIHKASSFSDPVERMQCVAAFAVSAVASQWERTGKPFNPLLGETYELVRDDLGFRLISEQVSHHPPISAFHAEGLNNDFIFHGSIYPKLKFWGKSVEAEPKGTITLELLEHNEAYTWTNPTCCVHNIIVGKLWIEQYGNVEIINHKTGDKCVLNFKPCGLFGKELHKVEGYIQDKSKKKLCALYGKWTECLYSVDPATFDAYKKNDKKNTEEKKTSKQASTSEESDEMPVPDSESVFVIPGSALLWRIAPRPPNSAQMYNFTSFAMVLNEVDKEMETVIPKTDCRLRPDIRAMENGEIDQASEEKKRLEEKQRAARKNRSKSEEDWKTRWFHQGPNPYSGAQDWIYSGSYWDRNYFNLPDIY
# B2: Vesicle-associated membrane protein-associated protein SCS2 (Saccharomyces cerevisiae), P40075 (parent)
# chain: MSAVEISPDVLVYKSPLTEQSTEYASISNNSDQTIAFKVKTTAPKFYCVRPNAAVVAPGETIQVQVIFLGLTEEPAADFKCRDKFLVITLPSPYDLNGKAVADVWSDLEAEFKQQAISKKIKVKYLISPDVHPAQNQNIQENKETVEPVVQDSEPKEVPAVVNEKEVPAEPETQPPVQVKKEEVPPVVQKTVPHENEKQTSNSTPAPQNQIKEAATVPAENESSSMGIFILVALLILVLGWFYR
# partner: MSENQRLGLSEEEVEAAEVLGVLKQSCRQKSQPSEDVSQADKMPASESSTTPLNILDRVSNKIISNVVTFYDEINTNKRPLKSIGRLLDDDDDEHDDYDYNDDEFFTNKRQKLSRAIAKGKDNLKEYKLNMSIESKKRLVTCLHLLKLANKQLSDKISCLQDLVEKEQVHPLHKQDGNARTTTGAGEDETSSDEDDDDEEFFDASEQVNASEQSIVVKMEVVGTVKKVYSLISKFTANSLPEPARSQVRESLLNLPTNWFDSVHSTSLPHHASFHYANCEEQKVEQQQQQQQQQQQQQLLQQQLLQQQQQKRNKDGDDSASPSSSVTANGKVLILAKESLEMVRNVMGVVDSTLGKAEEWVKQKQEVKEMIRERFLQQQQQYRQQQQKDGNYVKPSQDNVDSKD
# Variants of: B1
# Conditions: with osbl1_rat Osbpl1a
row,Variant,effect of a mutation on the interaction
1,K94D;M96D,disrupting interaction

# Variants of: B2
# Conditions: with opi1_yeast OPI1, P21957
row,Variant,effect of a mutation on the interaction
1,K84D;L86D,disrupting interaction
